# Assay results reported in the supplement of paper PMC11502859.
# Test system: HEK293T
# Assay: median enrichment of reporter reads in eGFP-reduced (low/intermediate) vs eGFP-high sorted cells (eGFP-extension fusion abundance) (ratio); higher = stronger loss of eGFP-fusion protein abundance (more destabilising extension)
# 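Also: lentiviral eGFP-IRES-mCherry reporter pool sorted by FACS 96 h post-transduction, gated on mCherry-high cells, Illumina read counts normalized per million, median across four biological replicates.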
row,Substance,median enrichment
1,SWTVPICREA [RWDD1],6.01
2,VGIRAAPSGAGTAGTAAILLLLVFFLLSKINCGNILVSCDVRCSFVVKFAIDIEIMTSVFPEIKHVSTQDFLDHSRKCQTFSQ [KISS1R],7.04
3,EVKGSIQVLHLVLPCLLSDHSDGLMWLLMWNCRRVQRRVCNKAIGKHTGAFPSPSGPRPLSKLDNFLLSCLFPALKLKQEIFW [HS3ST3B1],9.3
4,WSLKWRTCVFIISAKVLTSCAFPITSRSNYQLVWIFGPPFSHFGLPCSQNILNESIGIQKDSRQNERK [VCAN],11.9
5,LKKKKG [TNFAIP6],3.07
6,LVISSVFCFLF [MS4A1],7.46
7,QPDKRNKLFFLMDCSKRSLKIPWLSTYKTYYLNKEEYYVNIHIKNFGGFEKNELYIYKSTLKTNFNCLKQLF [NLGN1],24
8,SAIHL [XKR9],0.425
9,SGSRRSRRDPHGSIALASDLAWRYFCRELGSRNASDLSALHIVGLKSGWELAKSLFRLFN [MRPL34],8.92
10,SNIYLK [TEX12],0.685
11,QALGKKDCNQRKSIGVEEIKLTLFWLFF [GLI3],25.8
12,CARAALEAPARGICPYPSWKDSWMW [HCRTR1],10.8
13,SACPQHLLPPSLGVWIPMELGSAGHNLFLASDLPAIIKWLQIGT [LRRC59],7.87
14,LSRL [ESM1],10.3
15,HTTGQGCGAGAIPAPFPGPRGLGSLPSHPGLVPPGAPTVEIRRGWNGGRGGAGGPHPSAALGLGPHPSGGPEAGGGNPRGWLF [GNB2],0.37
16,WRPNSRTPK [SNRNP35],0.861
17,RAWLPACTPPLPPHESPPAGYRGRHAPGASPALGTTCLPAPPGPGPPAAPHFRRGLEQGEAGLWGAVREIYWGPQILL [ECEL1],4.03
18,FLQRTALIFRFKRLPTR [Degron UPS],6.83
19,LIPVDPQGLAKARDTQREMLVIPLENLASNFLYV [KRT38],39.9
20,YGPGTGGAHPATEHVRVLVLFRSPLSRCNFCSSSPTPAPSFMLLFRTQPPCPVLVVSR [STMN3],7.57
21,LSRLLASMDFSRDVDIVLRVH [DIP2C],10.3
22,RDRALRCQGENPSSNPGYLETEKLEF [ITLN2],0.166
23,IIIIIIIII [Ile09],9.46

row,Substance,median enrichment
1,YQHWPSVFLGGTSQEPLPALLESQRGQEAVAGASTQLG [GDF5],1.15
2,YWELLWQVPPE [C1orf115],3.92
3,CTRAGGGAERGAPPPLRSLALSRPSCSLSNF [POU3F2],4.86
4,SAHSPLSQDMDLELRMGLS [IMP4],0.513
5,YMILKPETI [TRIP11],4.3
6,GSYISPSIRGHTQESNFALLQALVEAA [ZNF337],9.72
7,RLMW [KRTAP13-3],3.36
8,YQLFAISCTQTCVIYAPGNQ [MAST2],7.02
9,RILDQ [SH3KBP1],1.07
10,WPVRPLSSPS [TBL3],0.256
11,YYYYYYY [Tyr07],3.18
12,YEKHFGILSIMILCYRHRECCIQ [FASLG],3.75
13,SDP [CYGB],0.606
14,QSKQGRNVQVNNKSPHTLLTPWRQLLFRSFICLLQESFLPLT [SIRPD],4.67
15,RLNICSVLKLMCFVGV [FBXL4],10.3
16,YYYYY [Tyr05],22.4
17,QCMSLV [CCDC6],0.689
18,QWLSGSMC [LYPD6],0.958
19,CTLGAVSSKSL [ZFC3H1],0.779
20,LRRVLSNLFFFFLYLHLQPQLSHFSP [MTMR11],11.6
21,QRHASFTISGKRTHCAYSDCRVYKRQPFGYYCCKVQILQASSDICIYCHYCLWKKQGIKVPVHLMYYFL [NEUROD1],14.6
22,TTTT [Thr04],0.324
23,TLTMPRPHPVQHSQSSHLHPRTVGAGRHFPLEHVLRSITLGPTARLSLPPGSCMRSPDQLDHHFAQPLNTMHQASISQFPLAF [SCARA5],3.72

row,Substance,median enrichment
1,SDRTCLRGRRTLAWAQESEAAFLLRGPSGESGPRYHARTLRGPVSCRRVSTFPPNPGLTALRSARRARAETRVGCGELKEPIK [UQCC3],3.65
2,QDGWGWR [SCPEP1],0.778
3,LSRLW [CREG1],16.6
4,RQLQELNSLAPEELAAQEAKLAF [TMEM81],0.0302
5,YISHQKLRQEKQK [RASSF8],3.3
6,WGSCSGGRV [ZNF330],0.598
7,YALPSWPLISAWVDHPRLQRVEGGSSSWESF [TMEM214],7.05
8,RPWPRAQACLGWALPLTTQGGPGPLGFLPWGQQPPAGLVGSGFLDFLMKRGYL [KCNH4],4.41
9,KLDLII [OR4S2],1.99
10,CGHLSGPGALMEAIGTPELPSHS [ODF2],0.872
11,RRRRR [Arg05],0.5
12,YTQKTNSIQSQ [ENDOD1],1.93
13,RGCAPAGSSKDRPARSPSNPTFFWKGGVLQGQAGASSRLLGANPSMYIAFLSCLRAADSQRCARGERCAVGSRA [TNFRSF1A],10.5
14,SKQKHQHTSLDNSIWSTRLSYRFNFFCILRTL [HNRNPH3],6.48
15,KISVETYTVSSQLLMVLMSLDLDTGLVPSLVSKCLILRVK [VHL],5.01
16,QRFSSEKNLCLIF [PHACTR3],9.78
17,LKSKLVVLQLCVTFSPSAVSVQHLFHKCFVFSNTVFTTLLACICMFYTKAYTVLCEAIRSRKGIVNNIKHFYTKIICFVIRF [SLC44A5],2.32
18,SCPPRCSQGNLAPRS [ZIC4],0.982
19,LAFRLALAPGTRSPRAPGPLPAPAAPSPSPGCVSLPMTLSWGPPARPGTFLPNPQTHDSLPHRLPQRPPTHFILSGHPSDLDP [SCRT2],3.18
20,AAAAA [Ala05],4.35
21,GQRQRVLPKPLLPLWMLSLTLTHHCASLQTPRAQDWARPRDSHPFPSWEELACLATDSVSSNWLKWALPRVQLCGFYHA [IQGAP3],15.7
22,LPVRPAQPGPGPRFSTRTVHPASRSL [DLGAP3],17.6
23,RGKTWKRPACLQ [RRM1],0.421

row,Substance,median enrichment
1,YASLAAGTSTWRS [CRB2],2.41
2,YICLASPPSVFSTQRRREPAVPCRREEGLLDPRLSPSALRTPCPDSLLMVGPLCSSLPVGSLSSLTWIRFGFSTSLPQRKDYS [KRT13],6.15
3,STIEICSEM [PCDH11Y],0.758
4,YKVPLANCLEAQHNPKALFR [HIST1H1E],6.29
5,QSPSAARKCWSWSKIGFFKIFLVIREYI [PSD3],7.26
6,RRR [Arg03],0.663
7,SDNL [PDLIM2],0.365
8,KTNKMRSSLWSFNSLMQIKTQTSLQALAYYSCIKNFGWGDLGA [MTRNR2L7],7.22
9,LGSVPGWPVPITSYAHLPPPVFPPLDWWPLPWGRSPHVPAPGDRQRRQQAAFVAQQGALPSLLPSCFS [CST3],4.44
10,CVARALGVLLEAPRASRIASQLPGQPTLLQPLTRTPVIRTGAPVPWSPPWAHVLTQAQQ [OVOL1],8.09
11,YTCPYSSRALNLLLTNHLLRC [KCNU1],11.9
12,WTHPLVVDRLPGTTIIPGPPRASEFETLAEIK [TBC1D7],4.38
13,WPSLPPKPRACLSAQLEGPRLQGVLPQSRCFLCIRDPLPSHPVSCLHRWIIFEPPCVDHFEPPGLAQFILIKVFLGGILGT [PARVG],9.47
14,VVRASPYLLLSPCEEDPDLASFPRRGWGVPRVPVLEGPPSPSLITVLFSAPPSAARLQHQGEADAEPHRWESCLWKGAFCYNL [ZNF646],3.51
15,WGHQSPQWTDAFDGQDEGQGHWSEGVDKTAAI [TBC1D21],0.0629
16,YMFVWN [STKLD1],6.18
17,LTSQST [ANGPT2],0.829
18,KPVLGPSVKYP [GNPDA1],0.312
19,LRSRRDEAASPFSASPPAQGPSGGACRTCPGTVAPQACLSCRVPMAWSLHLTDWSPLPDSHFQKLGGRDTWKTPVTSFLLRA [DPM2],4.89
20,RGPPGLWGERM [CHRNB4],1.36
21,YDSPGLKLGSRPAR [PTGDS],3.48
22,KKPPAQLETC [METTL16],0.455
23,VSSFLLVFFILFSFHQPSCILALQRDRDRSSAQGFSLPLFIMGGGYHPPSQSCEESGTSFFPTSLFPHSFLSPSGLSFPYTLT [NOTCH3],5.94

row,Substance,median enrichment
1,RGNMCNVLTKVTGTY [PLEKHS1],1.76
2,SYKQRTSSILRKEML [MEOX2],5.43
3,YTAQGSPTQAPTLLLLALLPASVQRTGRYWWEALCLAPQLPVWASKHNGPSRSLVETGVVVPNLPSALPLHRTQRPQALQGVL [AMIGO3],8.02
4,NRRRRWRERQR [Degron FEM1C],21.1
5,KTKAKYIDFTVILKYNKNC [IL26],5.5
6,YRHLVVFWEQKNYFLLTRLFVLKTIFLNLS [EP300],14
7,YGRDWHRLAFQHLLSPTLHSLLPCLSNKPNAACEAFFIFLFTLFLMLPTLPFRFFC [RSU1],10.2
8,QEATDRVSLVIRSQRFTI [ITM2A],15.6
9,VVVVVVV [Val07],7.67
10,YRKGW [C9orf131],0.926
11,YVLCYNGVIVPKCPH [OR51F2],5.24
12,LGSVQGLSH [CST5],0.51
13,LSQTSFYIREPFQYSESETPA [ZNF12],3.12
14,LNAFLASSAGGLSLGRGDSTHHWNFADRKRFLFSVL [KMT2C],16.9
15,RAPTLQPQTLCTPRCDAGRGPPPGRTDCRSWEPRHAQASAEGAAGGSARLDPWHLIKKFSLMSMVVGQPSSLSQQAHAASVTS [ZFPM1],2.21
16,CPLSATHVVPSLPSFHLDVPPSPTSAPLLPRLDLKPELPLNLEYATYNMQAAKHPFCTRRLEWNCHVQ [PRR20A],5.57
17,YHQNLCQNTKECA [TLL1],0.773
18,LIFFYQEG [PTEN],5.69
19,VVVVVV [Val06],5.06
20,QTHGTDSLGN [DPF3],0.444
21,EYPRFKKRT [PPP2R1B],1.16
22,GHPQDTPMWLLDNPRAAKSCFSSLAPQVLQDRALKATPNEFSGFRLWLQPNRTHFEHPDCIFAFRKLE [C5orf46],3.29
